# Data reported in paper PMC12524728, “Integrating Structural Bioinformatics and Functional Mechanisms of Sesquiterpene Synthases CARS and CADS in Lavandula angustifolia (Lavender)” (International Journal of Molecular Sciences, 2025).
# B1: CARS (wild-type, full-length) (Lavandula angustifolia) (protein)
# chain: MAAPISTNNVCSDDARPVTYHPNVWSDYFLRYTSELTEISVAKKEEHERQKEAIRNLLLQTRDDSTLKLELVDAIQRLGIGYHFEEEIHNSLRNIYDTNPIYNAEDDNLRVAALRFRLIRQQGFPAPCDVFRKFVDEEGEFKSWVSNDVEGLLNLYEASNFAVHGEEILEKALEFCSLRLEFLTQGMTNSLSMRVKEALKIPISKTLTRLGARKFMSMYQEDESHNETLLNFAKLDFNLVQKIHQKELNQITRWWKELDFGKNLPFARDRPVECYFWIVGVYFEPRYGIARTLLTKIIYLASVLDDIYDVYGTLAELTIFTQIIRRWDSDAMDQLPPYMRIYCKALFDVYVEMEEEMGKIRKSYAVEYAKKEMKRLAEMYFQEAQWAFSKYKPTMKEYLKVALISSGYMMMTINSLTTIEDLITEEEFNWILSEPRILRASLTITRLMDDLAGYGTEGKMSAVHYYMAENGVSEGEAFKEVSGIIKSAWKDVNAECVEPRAASTTILRCVVDFTRVIVLLYSDEDAYGNSQTKTKDLIKSVLVDPLII
# notes: full-length, codon-optimised gene; monomer by DLS; host and tags only in supplement
# B2: ∆1–226 (CARS) (Lavandula angustifolia) (protein)
# chain: ETLLNFAKLDFNLVQKIHQKELNQITRWWKELDFGKNLPFARDRPVECYFWIVGVYFEPRYGIARTLLTKIIYLASVLDDIYDVYGTLAELTIFTQIIRRWDSDAMDQLPPYMRIYCKALFDVYVEMEEEMGKIRKSYAVEYAKKEMKRLAEMYFQEAQWAFSKYKPTMKEYLKVALISSGYMMMTINSLTTIEDLITEEEFNWILSEPRILRASLTITRLMDDLAGYGTEGKMSAVHYYMAENGVSEGEAFKEVSGIIKSAWKDVNAECVEPRAASTTILRCVVDFTRVIVLLYSDEDAYGNSQTKTKDLIKSVLVDPLII
# notes: N-terminal deletion of residues 1-226; host and tags only in supplement
# B3: CADS (wild-type, full-length) (Lavandula angustifolia) (protein)
# chain: MATSAVVNCLGGVRPHTIRYEPNMWTHTFSNFSIDEQVQGEYAEEIEALKQEVRSMLTAATTCKEQLILIDTLERLGLSYHFETEIEQKLKEIILHINREEDASGGDCDLYTTSLGFRVIRQHQYHISCGVFEKYLDKDGKFEESLSSDTEGILSLYEAAHVRFRDETLLQEAARFSRHHLKGMEEVLESPLREKVQRALQHPLHRDIPIFYAHFFISNIYQKDDSRNELLLKLAKSNFMFLQNLYKEELSQLSRWWNKFDLKSKLPYARDRLVEAYIWGVGYHYEPRYAYVRRGLVIGIQIIAIMDDTYDNYATVDEAQLFTEMFERWSMDGIDGVPDYLKIAYHFVVSAFEDYERDAGKLGKQFAAPYFKQTIQQLARAYNQELKWVMGTQSMPSFQDYAKNSEITSCIYIMSASVFHGLESVTQETIDWLKNEPNFAVSTGMIGRYWDDIGSHERESRGGKMLTAVGCYMKQYGVSKKEAVRKFREQVEDLWKDVNKGYTAMTCMPRETAVLFLNYARMCDASYTENNDDGYTDPDFSKRKISALFLDPLVF
# notes: as for B1
# B4: ∆1–228 (CADS) (Lavandula angustifolia) (protein)
# chain: ELLLKLAKSNFMFLQNLYKEELSQLSRWWNKFDLKSKLPYARDRLVEAYIWGVGYHYEPRYAYVRRGLVIGIQIIAIMDDTYDNYATVDEAQLFTEMFERWSMDGIDGVPDYLKIAYHFVVSAFEDYERDAGKLGKQFAAPYFKQTIQQLARAYNQELKWVMGTQSMPSFQDYAKNSEITSCIYIMSASVFHGLESVTQETIDWLKNEPNFAVSTGMIGRYWDDIGSHERESRGGKMLTAVGCYMKQYGVSKKEAVRKFREQVEDLWKDVNKGYTAMTCMPRETAVLFLNYARMCDASYTENNDDGYTDPDFSKRKISALFLDPLVF
# notes: N-terminal deletion of residues 1-228; host and tags only in supplement
# Columns and labels:
# Assay in all cases: enzyme kinetics, Hanes-Woolf plot
# Type in all cases: biochemical, Lavandula angustifolia
# Details in all cases: Mg2+-dependent enzyme; assay conditions only in supplement
# [1] = system: T1, CC(C)=CCC/C(C)=C/CC/C(C)=C/CO[P@@](=O)(O)OP(=O)(O)O
# T1 construct: C-terminal deletion of residues 529-555; host and tags only in supplement
# Text: enzyme kinetics, Hanes-Woolf plot on ∆529–555 (CADS)
# [2] = system: T2, CC(C)=CCC/C(C)=C/CC/C(C)=C/CO[P@@](=O)(O)OP(=O)(O)O
# T2 construct: C-terminal deletion of residues 522-548; host and tags only in supplement
# Text: enzyme kinetics, Hanes-Woolf plot on ∆522–548 (CARS)
# [3] = substrate: CC(C)=CCC/C(C)=C/CC/C(C)=C/CO[P@@](=O)(O)OP(=O)(O)O
# Text: enzyme kinetics, Hanes-Woolf plot on CARS (wild-type, full-length)
# [4] = substrate: CC(C)=CCC/C(C)=C/CC/C(C)=C/CO[P@@](=O)(O)OP(=O)(O)O; remark: listed apart in the source
# Text: enzyme kinetics, Hanes-Woolf plot on ∆1–226 (CARS)
# [5] = substrate: CC(C)=CCC/C(C)=C/CC/C(C)=C/CO[P@@](=O)(O)OP(=O)(O)O; remark: listed apart in the source
# Text: enzyme kinetics, Hanes-Woolf plot on CADS (wild-type, full-length)
# [6] = substrate: CC(C)=CCC/C(C)=C/CC/C(C)=C/CO[P@@](=O)(O)OP(=O)(O)O; remark: listed apart in the source
# Text: enzyme kinetics, Hanes-Woolf plot on ∆1–228 (CADS)
molecule,measurement,setting,value
∆529–555 (CADS) (Lavandula angustifolia; DEL529-555),Km,[1],7.13 ± 0.29 µM
same,kcat,[1],0.44 ± 0.00883 s⁻¹
∆522–548 (CARS) (Lavandula angustifolia; DEL522-548),Km,[2],4.96 ± 0.17 µM
same,kcat,[2],0.391 ± 0.0115 s⁻¹
B1,Km,[3],11.34 ± 0.13 µM
same,kcat,[3],0.104 ± 0.00183 s⁻¹
B2,Km,[4],9.57 ± 0.24 µM
same,kcat,[4],0.24 ± 0.00533 s⁻¹
B3,Km,[5],15.86 ± 0.21 µM
same,kcat,[5],0.0993 ± 0.00383 s⁻¹
B4,Km,[6],11.13 ± 0.37 µM
same,kcat,[6],0.2937 ± 0.00233 s⁻¹
